From patent US20230338553A1 (published 2023)
One block for each binder: values may come before it.

Biological target: Prostate Stem Cell Antigen (PSCA) (human, UniProt O43653 12-83)
Experiment: flow cytometry (293T-PSCA cells)

Sequence of Prostate Stem Cell Antigen (PSCA) (O43653 12-83): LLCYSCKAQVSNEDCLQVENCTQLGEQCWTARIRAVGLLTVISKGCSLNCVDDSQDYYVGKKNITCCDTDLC

Kd: 16.6 µM
B1: scFv(AM1)-P-BAP (scFv)
scFv: DAAQPARRARRTKLGTELGSQVKLQESGGGLVQPGGSLKLSCVASGFTFSSYTMSWVRRTPEKRLEWVAYIHNGGGHTYYPDTIKGRFTISRDNAKNTLFLEMSSLKSEDTAMYYCTRRMYYGNSHWYFDVWGAGTSVTVSSAKTTPPSVYGGGGSGGGGSGGGGSTNSDIVMTQSPSSLSASLGDRVTINCRTSQDISNYLNWYQLTPDGTVKLLIYYTLKLNSGVPSRFSGSGSGTDYSLTINNLEKEDFATYFCQQSKTLPWTFGGGTKLEIKRADAAPTVSGPKLSSKLKVTVNGTAYDVDVDVDKSHENPMGTILFGGGTGGAPAPAAGGAGAGKAGEGEIPAPLAGTVSKILVKEGDTVKAGQTVLVLEAMKMETEINAPTDGKVEKVLVKERDAVQGGQGLIKIGDLELIEGSSGPEQKLISEEDLNSAVDHHHHHH
modifications: mono-biotinylated at the C-terminal P-BAP (PSTCD biotin acceptor domain) when produced in 293T-huBirA cells

Kd: 0.744 µM
B2: scFv(h-AM1)-BAP (scFv)
scFv: DAAQPARRARRTKLGTELGSEVQLLESGGGLVQPGGSLRLSCVASGFTFSSYTMSWVRQAPGKGLEWVSYIHNGGGHTYYADSVKGRFTISRDNSKNTLYLQMNSLRAEDTAVYYCTRRMYYGNSHWYFDVWGAGTRVTITSAKTTPPSVYGGGGSGGGGSGGGGSTNSDIQMTQSPSSLSASVGDRVTITCRTSQSISNYLNWYQQKPGKAPKLLIYYTLKLNSGVPSRFSGSGSGTDFTLTISSLQPEDFATYYCQQSKTLPWTFGGGTKLEIKRADAAPTVSGPEQKLISEEDLNSAVDMSGLNDIFEAQKIEWHEGAPSSHHHHHH
modifications: mono-biotinylated at the C-terminal BAP (Bio-Tag)
